Laboratory results as given in publication PMC6118392, “VapC proteins from Mycobacterium tuberculosis share ribonuclease sequence specificity but differ in regulation and toxicity” (PLoS ONE, 2018).

T1: VapB29;VapC29 (Mycobacterium tuberculosis …, UniProt P9WJ37;P9WF79 1-75;1-133, |)
T1 sequence 1: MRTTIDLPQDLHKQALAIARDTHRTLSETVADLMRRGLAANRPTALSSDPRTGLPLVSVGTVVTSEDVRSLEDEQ
T1 sequence 2: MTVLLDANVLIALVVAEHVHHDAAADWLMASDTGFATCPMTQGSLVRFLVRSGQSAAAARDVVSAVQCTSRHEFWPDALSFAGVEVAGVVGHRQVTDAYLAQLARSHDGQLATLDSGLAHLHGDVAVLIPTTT

B1: Oligo 5 Bind 3 (Mut. 3) (dsDNA)
DNA 1: GGTGAGCGTCGGCGCGAAAAAAACGATGCAGCGATGTTAGGATGAGGCGG
DNA 2: CCGCCTCATCCTAACATCGCTGCATCGTTTTTTTCGCGCCGACGCTCACC
B2: Oligo 5 Bind 5 (Mut. 5) (dsDNA)
DNA 1: GGTGAGCGTCGGCGCGCGCATCACGATGCAAAAAAATTAGGATGAGGCGG
DNA 2: CCGCCTCATCCTAATTTTTTTGCATCGTGATGCGCGCGCCGACGCTCACC
B3: VapBC29 heterodimer (complex)
chain 1: MRTTIDLPQDLHKQALAIARDTHRTLSETVADLMRRGLAANRPTALSSDPRTGLPLVSVGTVVTSEDVRSLEDEQ
chain 2: MTVLLDANVLIALVVAEHVHHDAAADWLMASDTGFATCPMTQGSLVRFLVRSGQSAAAARDVVSAVQCTSRHEFWPDALSFAGVEVAGVVGHRQVTDAYLAQLARSHDGQLATLDSGLAHLHGDVAVLIPTTT
notes: VapB29 antitoxin of Mycobacterium tuberculosis, gene Rv0616a; as m7; VapC29 toxin of Mycobacterium tuberculosis, gene Rv0617; as m8; also called Rv0616a/Rv0617
B4: VapBC19 heterodimer (complex)
chain 1: MRTQVTLGKEELELLDRAAKASGASRSELIRRAIHRAYGTGSKQERLAALDHSRGSWRGRDFTGTEYVDAIRGDLNERLARLGLA
chain 2: MKLIDTTIAVDHLRGEPAAAVLLAELINNGEEIAASELVRFELLAGVRESELAALEAFFSAVVWTLVTEDIARIGGRLARRYRSSHRGIDDVDYLIAATAIVVDADLLTTNVRHFPMFPDLQPPY
notes: VapB19 antitoxin of Mycobacterium tuberculosis, gene Rv2547; as m3; VapC19 toxin of Mycobacterium tuberculosis, gene Rv2548; as m4; also called Rv2547/Rv2548
B5: VapBC1 heterodimer (complex)
chain 1: MATIQVRDLPEDVAETYRRRATAAGQSLQTYMRTKLIEGVRGRDKAEAIEILEQALASTASPGISRETIEASRRELRGG
chain 2: MDECVVDAAAVVDALAGKGASAIVLRGLLKESISNAPHLLDAEVGHALRRAVLSDEISEEQARAALDALPYLIDNRYPHSPRLIEYTWQLRHNVTFYDALYVALATALDVPLLTGDSRLAAAPGLPCEIKLVR
notes: VapB1 antitoxin of Mycobacterium tuberculosis, gene Rv0064a; as m1; VapC1 toxin of Mycobacterium tuberculosis, gene Rv0065; as m2; also called Rv0064a/Rv0065
B6: VapBC39 heterodimer (complex)
chain 1: MRTTLQIDDDVLEDARSIARSEGKSVGAVISELARRSLRPVGIVEVDGFPVFDVPPDAPTVTSEDVVRALEDDV
chain 2: MTALLDVNVLIALGWPNHVHHAAAQRWFTQFSSNGWATTPITEAGYVRISSNRSVMQVSTTPAIAIAQLAAMTSLAGHTFWPDDVPLIVGSAGDRDAVSNHRRVTDCHLIALAARYGGRLVTFDAALADSASAGLVEVL
notes: VapB39 antitoxin of Mycobacterium tuberculosis, gene Rv2530a; as m9; VapC39 toxin of Mycobacterium tuberculosis, gene Rv2530c; as m10; also called Rv2530a/Rv2530c

biological target: T1, VapB29;VapC29; assay: EMSA; conditions: protein: recombinant;recombinant; tags: ;C-terminal His; label: 3' DIG-ddUTP; blunt

Row | Binder | binding result
1 | B1 | no binding
2 | B2 | no binding

Biological target: the molecule itself
Assay: SEC
Conditions: not given

Row | Binder | stoichiometry N
3 | B3 | 5 VapBC heterodimers per complex
4 | B4 | 3.61 VapBC heterodimers per complex
5 | B5 | 5.6 VapBC heterodimers per complex
6 | B6 | 4.9 VapBC heterodimers per complex
